Substitutions are numbered along the chain they refer to. Non-standard residues stand in square brackets, D forms with d. No end group written: not given here. *: point of attachment. Biotin = O=C1N[C@H]2[C@H](CS[C@H]2CCCCC(=O)*)N1; sY = N[C@@H](Cc1ccc(OS(=O)(=O)O)cc1)C(=O)O
T1: Recombinant human PSGL-1(ECD)-hFc1 (R&D Systems, Cat. 3345-PS) (human, UniProt Q14242 42-305)
T1 construct: Bought; Gln42-Val295 counted on AAC50061; also called PSGL-1-Fc; PSGL-1-hFc1 chimera; not shown: human IgG1 Fc, Pro100-Lys330
T1 sequence: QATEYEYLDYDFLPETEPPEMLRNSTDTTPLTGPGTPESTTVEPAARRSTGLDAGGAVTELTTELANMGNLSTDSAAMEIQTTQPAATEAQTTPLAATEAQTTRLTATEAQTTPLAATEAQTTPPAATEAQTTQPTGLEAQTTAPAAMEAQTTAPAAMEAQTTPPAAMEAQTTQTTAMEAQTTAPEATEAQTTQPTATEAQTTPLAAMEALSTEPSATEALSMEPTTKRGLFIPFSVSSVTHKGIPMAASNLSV

T2: Human fibrinogen protein (ThermoFisher, RP-43142) (human, UniProt P02671 20-629; P02675 31-491; P02679 27-453, limits assumed, natural sulfotyrosines)
T2 construct: mature; Native dimer with 3 pairs of non-identical chains; also called gamma-fibrinogen; γ fibrinogen protein
T2 sequence (looked up) 1: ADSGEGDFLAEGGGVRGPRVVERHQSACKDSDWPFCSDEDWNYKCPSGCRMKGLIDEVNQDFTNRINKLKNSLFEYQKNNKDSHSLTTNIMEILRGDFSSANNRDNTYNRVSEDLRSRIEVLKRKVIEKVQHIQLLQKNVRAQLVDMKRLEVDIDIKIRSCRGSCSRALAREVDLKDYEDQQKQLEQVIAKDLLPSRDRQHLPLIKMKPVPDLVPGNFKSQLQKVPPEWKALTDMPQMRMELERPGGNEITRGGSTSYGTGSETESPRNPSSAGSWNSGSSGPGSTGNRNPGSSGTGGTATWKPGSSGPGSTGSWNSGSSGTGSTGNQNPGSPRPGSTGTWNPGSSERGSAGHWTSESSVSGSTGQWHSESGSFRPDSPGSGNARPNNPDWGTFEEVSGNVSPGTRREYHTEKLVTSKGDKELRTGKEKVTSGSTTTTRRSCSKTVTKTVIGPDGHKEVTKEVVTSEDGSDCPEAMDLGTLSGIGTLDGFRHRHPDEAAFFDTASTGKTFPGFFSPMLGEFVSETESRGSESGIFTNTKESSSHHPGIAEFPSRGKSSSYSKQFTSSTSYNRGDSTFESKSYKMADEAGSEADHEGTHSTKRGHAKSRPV
T2 sequence (looked up) 2: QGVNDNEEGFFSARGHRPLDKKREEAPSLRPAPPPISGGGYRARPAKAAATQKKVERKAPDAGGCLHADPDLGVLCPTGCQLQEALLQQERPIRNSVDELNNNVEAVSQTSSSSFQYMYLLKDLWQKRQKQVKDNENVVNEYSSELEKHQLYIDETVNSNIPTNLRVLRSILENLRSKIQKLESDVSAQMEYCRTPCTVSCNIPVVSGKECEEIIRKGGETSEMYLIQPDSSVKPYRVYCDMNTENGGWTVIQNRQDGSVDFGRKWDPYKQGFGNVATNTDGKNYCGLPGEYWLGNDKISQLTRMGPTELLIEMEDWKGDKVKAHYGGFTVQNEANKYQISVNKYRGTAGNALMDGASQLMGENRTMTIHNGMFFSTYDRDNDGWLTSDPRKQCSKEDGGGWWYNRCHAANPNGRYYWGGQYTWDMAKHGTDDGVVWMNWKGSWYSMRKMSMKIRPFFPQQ
T2 sequence (looked up) 3: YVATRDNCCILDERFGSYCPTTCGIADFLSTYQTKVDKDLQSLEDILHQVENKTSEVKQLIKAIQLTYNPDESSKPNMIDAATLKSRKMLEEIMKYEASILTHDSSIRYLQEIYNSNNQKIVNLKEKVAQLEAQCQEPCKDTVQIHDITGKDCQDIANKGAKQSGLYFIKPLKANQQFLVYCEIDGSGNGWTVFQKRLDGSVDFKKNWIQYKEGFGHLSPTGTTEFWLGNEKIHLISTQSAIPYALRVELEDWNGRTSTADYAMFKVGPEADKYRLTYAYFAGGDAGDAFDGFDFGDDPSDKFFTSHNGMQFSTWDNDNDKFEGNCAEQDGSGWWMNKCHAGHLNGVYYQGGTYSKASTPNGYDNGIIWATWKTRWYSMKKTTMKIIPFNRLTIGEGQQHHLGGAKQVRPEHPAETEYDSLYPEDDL

T3: Sulfotyrosine D6 biotin peptide (human)
T3 construct: also called D6 peptide
T3 peptide: ENSSFY[sY][sY]D[sY]LDEVAFGGK(Biotin)

T4: SulfoTyr C4 peptide (not fully specified; Y4, Y7 and Y9 sulfated (SO3); C-terminal biotin)
T4 construct: also called C4 alpha chain peptide; human sulfotyrosinylated C4 peptide
T4 peptide: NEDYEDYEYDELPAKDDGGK

T5: SulfoCCK biotin peptide (human)
T5 construct: also called sulfotyrosine CCK peptide
T5 peptide: SHRISDRD[sY]MGWMDFGGK(Biotin)

B1: 18K07 (antibody, V domains shown)
VH: QIQLVQSGPELKKPGETVKISCEASGYTFTTYGMNWVKQAPGKGLKWMGWINTYSGVPTYADDFQGRFAFSVETSATTAYLQINNLKNEDAATYFCARSDDTYYGFAYWGQGTLVTVSA
VL: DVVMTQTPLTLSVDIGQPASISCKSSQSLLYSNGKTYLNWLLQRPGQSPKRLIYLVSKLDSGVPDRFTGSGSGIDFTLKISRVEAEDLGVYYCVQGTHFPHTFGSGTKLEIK
notes: From mouse immunisation; only variable domains given
B2: 5E12 (antibody, V domains shown)
VH: EIQLQQSGAELVRPGASVKLSCTASGFNIKDDYIHWVKQRPEQGLEWIGRIDPANGNTKSAPKFQDKATITADTSSNTAYLHLSSLTSEDTAVYYCSIRFAYWGQGTLVTVSA
VL: DVVMTQTPLSLSVSLGDQASISCRSSQSLVYRNGDTYLHWFLQKPGQSPKLLIYKVSNRFSGVPDRFSGSGSGTDFTLKISRVEAEDLGIYFCSQNTHVPYTFGGGTKLEIK
notes: Mouse hybridoma mAb; only variable domains given
B3: 06A07 (antibody, IgG4, V domains shown)
VH: QVQLVQSGPELKNPGASVKVSCKASGYSFTNFYINWVRQAPGRGLEWVGWISPNNGNTHYARNLQGRVTMTTDTSTNTAYLELKNLRSDDTAIYFCGRSVSMGYWGQGTLVTVSS
VL: LPVLTQPPSVSKGLRQTATLTCTGNSKNVGNQGAAWLQQHQGQPPKLLSYRNNNRPSGISERFSASRSGNTASLTITGLQPEDEADYYCSAWDSSLSAQVFGGGTKLTVL
B4: 09C10 (antibody, V domains shown)
VH: EVKLLESGGGLIQPGGSLRLSCAASGFTVSNNYVTWVRQAPGKGLELVSSIYSGGGTYYADSVKGRFTISRDNSKNTVYLQMNSLRADDTAVYYCARNVPVTNFGYWGQGTLVTVSS
VL: DIVMTQSPLSLPVTLGQPASISCRSSQSLVYRDGNTYLNWFQQRPGQSPRRLIYKVSNRDSGVPDRFSGSGSGTDFTLKISRVEAEDVGVYYCMQLTHWPPGFAQGTKLEIK
B5: 06C04 (antibody, IgG4, V domains shown)
VH: EVQLVESGGGLVQPGGSLRLSCAASGFTFSDHYMDWVRQAPGKGLEWVGRSRNKVKSYTTAYAASVEGRITISRDDSKNSLYLEMNSLKTEDTAVYYCVRVRWGGAFDIWGQGTMVTVSS
VL: QPVLTQPPSASGSPGQSVTISCTGTSSDVGGYNYVSWYQQHPGKAPKLMIYEVSKRPSGVPDRFSGSKSGNTASLTVSGLQAEDEADYYCSSYAGSNNLRVFGGGTKLTVL
B6: 9F9 (antibody, V domains shown)
VH: EVQLVETGGGLVQPKGSLKLSCAASGFTFNTNAMNWVRQAPGKGLEWVARIRSKSNNYATYYADSVKDRFTISRDDTQSMIYLQMNNLKTEDTGMYYCVRGGSYWYFDVWGAGTTVTVSS
VL: DVLMTQTPLSLPVSLGDQASISCRSSQSIVNSNGNTYLEWYLQKPGQSPKLLIYKVSNRFSGVPDRFSGSGSGTDFTLKISRVEAEDLGVYYCFQGSHVPWTFGGGTKLEIK
notes: Control anti-PSGL-1 mAb, recombinant; only variable domains given; also called 9F6
B7: 16E17 (antibody, V domains shown)
VH: QIQLVQSGPELKKPGETVKISCKASGYAFTTYGMSWVKQAPGKGLKWMGWINTYSGVPKYADDFKGRFAFSLETSASTAYLHINNLKNEDTATYFCGRHYYGSSYFDYWGQGTTLTVSS
VL: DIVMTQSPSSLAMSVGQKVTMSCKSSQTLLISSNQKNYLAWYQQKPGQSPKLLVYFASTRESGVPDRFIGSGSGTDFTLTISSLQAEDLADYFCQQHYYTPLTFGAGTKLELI
notes: as for B1
B8: 19N05 (antibody, V domains shown)
VH: B7 VH with A28T, K59T, Y60F, H82Q, Y94F, G97A, H99N, S103N, S104H
VL: DVQITQSPSYLAASPGETISINCRASNNINKYLAWYQEKPGKTNKLLIYSGSTLQSGIPSRFSGSGSGTDFTLTISSLEPEDFAMYHCQQHNYYPLTFGAGTKLELK
notes: as for B1
B9: 19L04 (antibody, IgG4, V domains shown)
VH: B7 VH with A28T, K59T, H82Q, N88I, G97A, S104H
VL: DIMMTQSPSSLAMSVGQKVTLRCKSSQSLLNSSNQKNYLAWYQQKPGQSPKLLVYFASTRESGVPVRFIGSGSGTDFTLTISSMQAEDLADYFCQQHYFSPLTFGAGTKLELK
notes: as for B1
B10: 43B6 (antibody, V domains shown)
VH: EVQLQQSGPDLVKPGALVKISCKASGYSFTAYYIHWVKQSHGKSLEWIGRVNPNTGGTSYNPKFKGKAILNVDKSSSTAYMELRSLTSEDSAVYYCARSGSPYYRYDDWGQGTTLTVSS
VL: ENVLTQSPAIMSASPGEKVTMTCRASSTVNSTYLHWFQQKSGASPKLWIYGSSNLASGVPARFSGSGSGTSYSLTISSVEAEDAATYYCQQYSGYPLTFGAGTTLELK
notes: Control anti-PSGL-1 mAb, recombinant; only variable domains given; also called 43B3

Experiments:
[1] = biological target: T1, Recombinant human PSGL-1(ECD)-hFc1 (R&D …); assay: blocking ELISA vs VISTA-Fc, pH 6.0
[2] = biological target: T1, Recombinant human PSGL-1(ECD)-hFc1 (R&D …); assay: blocking ELISA vs P-selectin-Fc
Method: A typical selectin blocking ELISA assay involved coating high binding half-well plates (Corning, Cat. #3690) with 2.5 ug/mL/25 ul per well of recombinant PSGL-1-Fc protein (R&D Systems, Cat #3345-PS) in PBS, pH 7.4, overnight at 4° C. […] Antibody (test and controls) was serially diluted (25 ul/well) in duplicate in assay buffer (3% BSA in wash buffer) into appropriate wells and the plate incubated for 45 min at 37° C. […] The plate was washed ×3 and HRP-conjugated streptavidin was added in assay buffer [25 ul per well; (Jackson Immunoresearch, Cat. #016-030-084)] and the plate incubated for 45 min at 37° C. […] For each antibody, an IC50 value was determined from sigmoidal fitted titration curves.

[3] = biological target: T2, Human fibrinogen protein (ThermoFisher, …); assay: ELISA, 50 nM mAb
Method: (§1) Recombinant PSGL-1-hFc1 chimera protein consisting of PSGL-1's extracellular domain (ECD) served as a positive control. […] Primary antibody was added (25 ul per well) in duplicate at 50 nM in assay buffer (blocking buffer containing 0.05% Tween®20) into test and control (just blocked) wells and the plate incubated for 45 min at 37° C.

[4] = biological target: T3, Sulfotyrosine D6 biotin peptide; assay: ELISA, 50 nM mAb
Method: as §1

SulfoTyr C4 peptide = biological target: T4, SulfoTyr C4 peptide; assay: ELISA, 50 nM mAb
Method: as §1

[5] = biological target: T6, Human complement C4 protein (Millipore Sigma, Cat. 204886) (human, UniProt P0C0L4 20-675; P0C0L4 680-1446; P0C0L4 1454-1744, limits assumed, natural sulfotyrosines); assay: ELISA, 50 nM mAb
T6 construct: mature
T6 sequence (P0C0L4 20-675 limits assumed, form in doubt, chain 1 of 3): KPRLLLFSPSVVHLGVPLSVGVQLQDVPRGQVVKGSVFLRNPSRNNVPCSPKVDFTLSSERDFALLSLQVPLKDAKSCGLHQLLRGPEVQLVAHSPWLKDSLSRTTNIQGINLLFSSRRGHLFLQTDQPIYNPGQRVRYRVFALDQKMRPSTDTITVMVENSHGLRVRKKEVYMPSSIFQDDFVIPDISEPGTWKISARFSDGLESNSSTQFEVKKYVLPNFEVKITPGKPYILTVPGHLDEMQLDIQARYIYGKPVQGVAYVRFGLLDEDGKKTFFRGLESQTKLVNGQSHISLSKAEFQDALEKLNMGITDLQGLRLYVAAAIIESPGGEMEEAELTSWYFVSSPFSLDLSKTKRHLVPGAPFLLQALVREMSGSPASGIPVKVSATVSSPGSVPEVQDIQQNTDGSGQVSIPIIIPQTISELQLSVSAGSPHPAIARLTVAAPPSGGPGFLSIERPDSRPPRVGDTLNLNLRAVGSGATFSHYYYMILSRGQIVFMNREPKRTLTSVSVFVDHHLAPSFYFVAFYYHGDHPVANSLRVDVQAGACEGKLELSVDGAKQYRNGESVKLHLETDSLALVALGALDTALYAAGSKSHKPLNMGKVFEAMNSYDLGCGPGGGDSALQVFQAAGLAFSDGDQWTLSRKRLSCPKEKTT
T6 sequence (P0C0L4 680-1446 limits assumed, form in doubt, chain 2 of 3): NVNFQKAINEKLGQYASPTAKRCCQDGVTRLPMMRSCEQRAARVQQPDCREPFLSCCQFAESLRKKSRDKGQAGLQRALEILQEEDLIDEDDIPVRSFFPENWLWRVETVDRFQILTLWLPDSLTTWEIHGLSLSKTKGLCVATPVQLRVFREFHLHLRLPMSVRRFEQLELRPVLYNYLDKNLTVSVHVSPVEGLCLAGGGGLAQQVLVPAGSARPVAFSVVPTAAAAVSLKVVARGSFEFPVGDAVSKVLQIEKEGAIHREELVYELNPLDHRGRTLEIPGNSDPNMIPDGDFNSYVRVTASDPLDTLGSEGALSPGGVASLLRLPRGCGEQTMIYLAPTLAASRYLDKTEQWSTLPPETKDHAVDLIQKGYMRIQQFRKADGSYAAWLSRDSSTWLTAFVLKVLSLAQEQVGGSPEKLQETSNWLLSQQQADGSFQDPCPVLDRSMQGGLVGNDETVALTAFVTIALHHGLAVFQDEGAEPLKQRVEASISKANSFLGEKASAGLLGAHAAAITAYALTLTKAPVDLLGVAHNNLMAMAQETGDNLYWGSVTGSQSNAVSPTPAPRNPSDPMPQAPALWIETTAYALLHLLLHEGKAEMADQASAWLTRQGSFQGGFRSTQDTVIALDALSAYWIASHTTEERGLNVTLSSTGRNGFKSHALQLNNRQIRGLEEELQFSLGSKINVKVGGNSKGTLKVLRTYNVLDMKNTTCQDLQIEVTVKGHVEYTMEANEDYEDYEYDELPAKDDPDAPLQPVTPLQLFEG
T6 sequence (P0C0L4 1454-1744 limits assumed, form in doubt, chain 3 of 3): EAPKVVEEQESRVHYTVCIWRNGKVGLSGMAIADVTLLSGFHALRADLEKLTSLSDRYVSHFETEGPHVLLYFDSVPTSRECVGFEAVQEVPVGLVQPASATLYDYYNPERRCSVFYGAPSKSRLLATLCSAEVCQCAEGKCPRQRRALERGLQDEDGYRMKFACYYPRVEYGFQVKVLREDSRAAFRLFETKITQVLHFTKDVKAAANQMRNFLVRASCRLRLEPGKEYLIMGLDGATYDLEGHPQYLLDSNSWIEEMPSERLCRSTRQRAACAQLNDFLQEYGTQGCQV
Method: as §1

SulfoCCK biotin peptide = biological target: T5, SulfoCCK biotin peptide; assay: ELISA, 50 nM mAb
Method: as §1

Binder	% max Block [1]	% max Block [2]	binding normalized to PSGL-1 [3]	binding normalized to PSGL-1 [4]	binding normalized to PSGL-1 (SulfoTyr C4 peptide)	binding normalized to PSGL-1 [5]	binding normalized to PSGL-1 (SulfoCCK biotin peptide)	IC50 [1]	IC50 [2]
B1	0%	0%							
B2	0%	0%	0.03	0.03	0.03	0.03			
B3			0.12	0.68	0.63	0.57	0.65		
B4			0.61	1.2	1.15	0.88	0.75		
B5			0.51	0.26	0.94	1.1	0.06		
B6	100%	100%						8 nM	10 nM
B7	0%	0%							
B8	0%	0%							
B9	0%	0%							
B10	100%	100%						9 nM	8 nM

Reference: patent US20220396632A1 (VERSEAU THERAPEUTICS, published 2022)
